This is an account of results in US20260224621A1.

The target in experiment [1] is CD20 on Raji lymphocyte cells and primary CLL cells (human) (UniProt P11836). The experiment is described as follows: cell-based or functional assay.
In experiment [2] the target is CD19 on Raji cells, primary CLL cells and melanoma cell lines made to overexpress CD19 (UniProt P15391). The experiment is described as follows: cell-based or functional assay.

Rituximab (anti-CD20) (antibody) registered a specific killing of Raji cells by YTS cells expressing CD16 (ADCC), 3 hours in experiment [1] of over 60%.
In experiment [2], “anti-CD19 CAR FMC63-28-3z (FMC63 scFV against CD19, CD28 costimulatory domain, CD3zeta signaling domain; Addgene #135991), expressed on YTS cells (from UniProt P10747 180-220; P20963 52-164)” gave a specific killing of Raji cells 24 hours after coculture, YTS CAR-CD19 cells (non-irradiated, 1000, 2500 or 3000 cGy) of over 55%; a specific killing of Raji cells by YTS cells expressing CAR-CD19 of over 50%; a specific killing of Raji cells, same day (2-3 hours), YTS CAR-CD19 cells irradiated with 1000 cGy of 25%; a specific killing of Raji cells, same day (2-3 hours), YTS CAR-CD19 cells irradiated with 2500 cGy of 23%. In experiment [2], this substance returned a specific killing of Raji cells, same day (2-3 hours), non-irradiated YTS CAR-CD19 cells of 18%.
